These results are taken from patent US20150098933.

The target in series [1] is T1, ekLAL (rhLAL containing the FLAG affinity and ek cleavage site, designed to give TLAL-G77), produced in HEK293 cells.
T1 chain: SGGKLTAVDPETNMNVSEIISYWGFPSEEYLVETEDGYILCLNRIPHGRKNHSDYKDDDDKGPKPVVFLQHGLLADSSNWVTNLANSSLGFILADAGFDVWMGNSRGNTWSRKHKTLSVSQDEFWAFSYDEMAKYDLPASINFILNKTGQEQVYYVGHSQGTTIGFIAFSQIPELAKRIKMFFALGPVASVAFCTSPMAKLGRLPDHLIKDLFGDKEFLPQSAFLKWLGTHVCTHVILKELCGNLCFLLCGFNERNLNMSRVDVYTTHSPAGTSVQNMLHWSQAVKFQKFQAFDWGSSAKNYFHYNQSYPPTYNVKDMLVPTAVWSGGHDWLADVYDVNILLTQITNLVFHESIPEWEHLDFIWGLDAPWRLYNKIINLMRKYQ

For series [2], the target named is T2, ekLAL (rhLAL containing the FLAG affinity and ek cleavage site, designed to give TLAL-K76), produced in HEK293 cells.
T2 chain: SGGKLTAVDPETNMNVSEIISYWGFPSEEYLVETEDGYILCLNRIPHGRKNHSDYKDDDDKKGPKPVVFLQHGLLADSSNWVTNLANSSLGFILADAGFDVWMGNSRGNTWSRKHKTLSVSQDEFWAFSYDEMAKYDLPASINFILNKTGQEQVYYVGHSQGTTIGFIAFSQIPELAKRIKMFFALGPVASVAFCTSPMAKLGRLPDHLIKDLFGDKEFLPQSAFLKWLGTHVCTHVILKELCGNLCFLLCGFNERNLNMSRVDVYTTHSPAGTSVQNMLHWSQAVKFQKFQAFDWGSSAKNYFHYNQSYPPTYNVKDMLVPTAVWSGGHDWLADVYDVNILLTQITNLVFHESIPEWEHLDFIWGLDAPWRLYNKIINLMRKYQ

For series [3], the target named is T3, full-length rhLAL produced in HEK293 cells.
T3 chain: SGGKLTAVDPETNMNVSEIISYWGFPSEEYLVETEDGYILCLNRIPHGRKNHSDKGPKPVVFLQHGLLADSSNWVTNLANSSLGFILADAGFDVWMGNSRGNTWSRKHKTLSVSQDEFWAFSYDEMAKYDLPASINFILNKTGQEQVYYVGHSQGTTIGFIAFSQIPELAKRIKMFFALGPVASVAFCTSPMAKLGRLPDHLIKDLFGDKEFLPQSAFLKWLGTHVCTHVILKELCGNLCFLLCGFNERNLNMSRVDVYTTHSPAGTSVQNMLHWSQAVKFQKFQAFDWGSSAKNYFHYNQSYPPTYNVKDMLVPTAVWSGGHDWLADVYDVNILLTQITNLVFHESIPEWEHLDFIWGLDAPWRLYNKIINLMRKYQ

Series [4] deals with T4, rhLAL protein produced from transgenic chicken.
T4 chain: T3 chain

B1: bovine enterokinase (EC 3.4.21.9) (protein)
chain: IVGGSDSREGAWPWVVALYFDDQQVCGASLVSRDWLVSAAHCVYGRNMEPSKWKAVLGLHMASNLTSPQIETRLIDQIVINPHYNKRRKNNDIAMMHLEMKVNYTDYIQPICLPEENQVFPPGRICSIAGWGALIYQGSTADVLQEADVPLLSNEKCQQQMPEYNITENMVCAGYEAGGVDSCQGDSGGPLMCQENNRWLLAGVTSFGYQCALPNRPGVYARVPRFTEWIQSFLH
On to B1, for which the “proteolytic cleavage (ek digestion, 6 days at room temperature, SDS-PAGE)” value in series [1] was “approximately 50% cleavage into TLAL-G77”. For the same protein, the “proteolytic cleavage (ek digestion, 6 days at room temperature)” value in series [2] is given as more than 70% cleavage into TLAL-K76. Further, the “proteolytic cleavage (molecular weight before and after ek digestion)” value in series [3] and in series [4] was “non-specific ek cleavage did not occur during the digestion reaction” in each case.
